Reference: article doi:10.1101/2023.07.17.549407 (bioRxiv, 2023)
Where no end group is shown, it is not given here. Ahx = NCCCCCC(=O)O

T1: carboxy-terminus of Hsp70 interacting protein (CHIP), recombinant (human, UniProt Q9UNE7 1-303)
T1 sequence: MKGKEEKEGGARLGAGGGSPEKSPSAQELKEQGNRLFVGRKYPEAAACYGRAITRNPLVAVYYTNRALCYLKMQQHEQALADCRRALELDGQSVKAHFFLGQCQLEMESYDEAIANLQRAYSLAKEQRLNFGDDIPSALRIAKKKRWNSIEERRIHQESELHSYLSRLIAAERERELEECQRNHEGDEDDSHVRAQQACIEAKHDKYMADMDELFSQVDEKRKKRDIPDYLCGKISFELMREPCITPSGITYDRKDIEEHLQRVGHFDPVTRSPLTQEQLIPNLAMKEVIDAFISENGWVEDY

T2: Human CHIP(21-154)-TPR domain (human, UniProt Q9UNE7 21-154)
T2 sequence: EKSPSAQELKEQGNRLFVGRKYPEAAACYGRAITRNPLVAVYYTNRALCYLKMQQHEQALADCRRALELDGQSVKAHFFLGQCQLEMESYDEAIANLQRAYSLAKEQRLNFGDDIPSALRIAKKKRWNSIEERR


How the values were obtained:
[1] = molecular target: T1, carboxy-terminus of Hsp70 interacting …; assay: fluorescence polarisation
[2] = molecular target: T2, Human CHIP(21-154)-TPR domain; assay: crystal structure

| binding result [1] | Binder | further results |
| --- | --- | --- |
| binds | {FAM-Ahx}-IEEVD [Hsp70 C-terminal tracer (FAM-Ahx-IEEVD)] | – |
| – | EFLPKTPIFRPD [HsCHIC2(154-165)-c-term peptide] | binding result [2]: binds |
| binds | Ac-LPKTPIFRPD [CHIC2 C-terminal 10-mer peptide Ac-LPKTPIFRPD] | – |
| binds | {FAM-Ahx}-IWWPD [IWWPD tracer] | – |
| – | {FAM-Ahx}-IFRPD [labeled CHIC2 peptide (FAM-Ahx-IFRPD)] | Kd [1]: 148 ± 6 nM |
| binds | LWWPD (not fully specified (N-terminus); printed as FITC-Ahx-LWWPD) [CHIPOpt tracer (FITC-Ahx-LWWPD)] | – |
